{
  "source": "patent US20230380451A1",
  "about": "“MEANS AND METHODS TO DETOXIFY MYCOTOXINS” (priority 2020, published 2023)",
  "key": {"[1]": {"experiment": "Storage stability at different pH values, residual DON transformation activity", "format": "biochemical", "conditions": "for Relative DON-transformation activity: storage at 30° C.", "description": "(§1) To determine the transformation of DON to epi-THS by Akr I-III, described herein, the following assay was performed. An assay buffer was prepared containing 40 ppm DON, 1 mM NADPH in Teorell Stenhagen (TS) buffer, pH 6.0 (Östling and Virtama, Acta Physiologica Scandinavica, 1946, 11:4, 289-293). Tubes containing the assay buffer were transferred in a heating block at 30° C. The reaction was started by addition of Akr I-III to a final concentration of 200 nM in a final reaction volume of 200 μL. Samples were taken before reaction start, and 2, 5, 10, 15 and 20 min after reaction start. DON transformation reactions in these samples were stopped by mixing with absolute methanol at a 1:2 ratio, followed by a 1:100 dilution with 40% methanol. The concentrations of DON and epi-THS in the samples were determined with liquid chromatography-mass spectrometry (LC-MS) on a Sciex 5500 triple quadrupole mass spectrometer coupled to Agilent 1290 series UHPLC system, using the following MS parameters: Acquisition duration: 4 min; Scan Type: MRM (MRM); Polarity: Negative; Ion Source: Turbo Spray.\nThe storage stability of Akr I-III at different pH values was tested by incubating 1 μM enzyme in TS buffer solutions with a pH of 3.0-10.0 for 4 h at 30° C. in standard 1.5 ml Eppendorf tubes. Every hour, a DON transformation assay was conducted as described in Example 3. The starting activity at time 0 min was set to 100% and the relative residual activities were determined throughout the incubation. For the DON transformation assays, 80 μl of the storage solution were added to an assay reaction with a final volume of 400 μl, which corresponds to a 1:5 dilution of the storage solution. Akr I retained more than 93% activity during 4 hours at 30° C. from pH 4.0-10.0. Akr II retained 30% to 93% activity during 4 hours at 30° C. from pH […] retained 27% to 85% activity during 4 hours at 30° C. from pH 4.0-9.0. Akr I-III retained more than 40% of their activity for 4 hours at 30° C. from pH 4.0 to pH 8.0."}, "[2]": {"format": "biochemical", "description": "as §1\nFor LC, eluent A was 5% methanol, 94.9% water (ultrapure), 0.1% acetic acid, and eluent B was 99.9% methanol, 0.1% acetic acid, using a Phenomenex Kinetex 2.6 μm biphenyl 150×2.1 mm column, an injection volume of 1 μL and the protocol shown in Table 3.\nBy applying the DON transformation assay basically as described in Example 3, but at pH values ranging from pH 2 to pH 10, the pH optima for DON degradation of Akr I-III (SEQ ID NOs: 1-3) were determined. Akr I and Akr II reached maximum activities at pH 6.0, Akr III at pH 6.5.\nBy applying the DON transformation assay basically as described in Example 3, but at different temperatures ranging from 14.9° C. to 55.7° C., the temperature optima for the DON degradation activities of Akr I-III were determined. Akr I maximum activity was shown at approximately 35° C., Akr II at approximately 31° C., and Akr III at temperatures from approximately 28° C. to 33° C. (see FIG. 4). […] For Akr I even at temperatures below 20° C."}},
  "note": "Read-outs that look alike come from different tables or passages of the source.",
  "data": [
    {"molecule": "Akr I: artificial amino acid sequence, variant of a wild type aldo-keto reductase (protein, ArkI) MRTTEISQGLKVSNLCIGAGPLGGMPTAFGYDVSEERGIATVQAVFDSPINFMDTSSEYGDSEVRIGKVIREGRMPKGFVIATKADAEGDGTARRGDFSAKQVRASFELSLERLGLTHIDVYFLHDPEKFPFEHVMARGGAMEELLRLKDEGLVGLVGVAGGDVVEMARYVDTGNLDILLNYGRYTLLDRSADSLIDKASDAGMAFLNAGPYASGLLAAPRGGSAWYQYAPPNADALQAVDQLHELCESFDVSLRSVALQFSMRDPRITSTVVGLSRPERVRALLDDAAAEIPAELWDQLPAPLNLPWNSLA", "values": [
      {"measurement": "retained activity", "setting": "[1]; during 4 hours at 30° C. from pH 4.0-10.0", "result": "more than 93%"},
      {"measurement": "Relative DON-transformation activity", "setting": "[1]; pH 3.0, 0 h (starting activity set to 100%)", "result": 100.0, "unit": "%"},
      {"measurement": "Relative DON-transformation activity", "setting": "[1]; pH 3.0, 1 h", "result": 0.0, "unit": "%"},
      {"measurement": "Relative DON-transformation activity", "setting": "[1]; pH 3.0, 2 h", "result": 0.0, "unit": "%"},
      {"measurement": "Relative DON-transformation activity", "setting": "[1]; pH 3.0, 3 h", "result": 0.0, "unit": "%"},
      {"measurement": "Relative DON-transformation activity", "setting": "[1]; pH 3.0, 4 h", "result": 0.0, "unit": "%"},
      {"measurement": "Relative DON-transformation activity", "setting": "[1]; pH 4.0, 0 h (starting activity set to 100%)", "result": 100.0, "unit": "%"},
      {"measurement": "Relative DON-transformation activity", "setting": "[1]; pH 4.0, 1 h", "result": 100.6, "unit": "%"},
      {"measurement": "Relative DON-transformation activity", "setting": "[1]; pH 4.0, 2 h", "result": 102.8, "unit": "%"},
      {"measurement": "Relative DON-transformation activity", "setting": "[1]; pH 4.0, 3 h", "result": 101.5, "unit": "%"},
      {"measurement": "Relative DON-transformation activity", "setting": "[1]; pH 4.0, 4 h", "result": 93.8, "unit": "%"},
      {"measurement": "Relative DON-transformation activity", "setting": "[1]; pH 5.0, 0 h (starting activity set to 100%)", "result": 100.0, "unit": "%"},
      {"measurement": "Relative DON-transformation activity", "setting": "[1]; pH 5.0, 1 h", "result": 101.0, "unit": "%"},
      {"measurement": "Relative DON-transformation activity", "setting": "[1]; pH 5.0, 2 h", "result": 101.6, "unit": "%"},
      {"measurement": "Relative DON-transformation activity", "setting": "[1]; pH 5.0, 3 h", "result": 100.8, "unit": "%"},
      {"measurement": "Relative DON-transformation activity", "setting": "[1]; pH 5.0, 4 h", "result": 97.9, "unit": "%"},
      {"measurement": "Relative DON-transformation activity", "setting": "[1]; pH 6.0, 0 h (starting activity set to 100%)", "result": 100.0, "unit": "%"},
      {"measurement": "Relative DON-transformation activity", "setting": "[1]; pH 6.0, 1 h", "result": 100.6, "unit": "%"},
      {"measurement": "Relative DON-transformation activity", "setting": "[1]; pH 6.0, 2 h", "result": 101.9, "unit": "%"},
      {"measurement": "Relative DON-transformation activity", "setting": "[1]; pH 6.0, 3 h", "result": 101.1, "unit": "%"},
      {"measurement": "Relative DON-transformation activity", "setting": "[1]; pH 6.0, 4 h", "result": 100.7, "unit": "%"},
      {"measurement": "Relative DON-transformation activity", "setting": "[1]; pH 7.0.0, 0 h (starting activity set to 100%)", "result": 100.0, "unit": "%"},
      {"measurement": "Relative DON-transformation activity", "setting": "[1]; pH 7.0.0, 1 h", "result": 99.6, "unit": "%"},
      {"measurement": "Relative DON-transformation activity", "setting": "[1]; pH 7.0.0, 2 h", "result": 101.4, "unit": "%"},
      {"measurement": "Relative DON-transformation activity", "setting": "[1]; pH 7.0.0, 3 h", "result": 99.7, "unit": "%"},
      {"measurement": "Relative DON-transformation activity", "setting": "[1]; pH 7.0.0, 4 h", "result": 96.1, "unit": "%"},
      {"measurement": "Relative DON-transformation activity", "setting": "[1]; pH 8.0, 0 h (starting activity set to 100%)", "result": 100.0, "unit": "%"},
      {"measurement": "Relative DON-transformation activity", "setting": "[1]; pH 8.0, 1 h", "result": 101.5, "unit": "%"},
      {"measurement": "Relative DON-transformation activity", "setting": "[1]; pH 8.0, 2 h", "result": 102.4, "unit": "%"},
      {"measurement": "Relative DON-transformation activity", "setting": "[1]; pH 8.0, 3 h", "result": 101.1, "unit": "%"},
      {"measurement": "Relative DON-transformation activity", "setting": "[1]; pH 8.0, 4 h", "result": 101.2, "unit": "%"},
      {"measurement": "Relative DON-transformation activity", "setting": "[1]; pH 9.0.0, 0 h (starting activity set to 100%)", "result": 100.0, "unit": "%"},
      {"measurement": "Relative DON-transformation activity", "setting": "[1]; pH 9.0.0, 1 h", "result": 100.9, "unit": "%"},
      {"measurement": "Relative DON-transformation activity", "setting": "[1]; pH 9.0.0, 2 h", "result": 101.0, "unit": "%"},
      {"measurement": "Relative DON-transformation activity", "setting": "[1]; pH 9.0.0, 3 h", "result": 100.8, "unit": "%"},
      {"measurement": "Relative DON-transformation activity", "setting": "[1]; pH 9.0.0, 4 h", "result": 96.6, "unit": "%"},
      {"measurement": "Relative DON-transformation activity", "setting": "[1]; pH 10.0, 0 h (starting activity set to 100%)", "result": 100.0, "unit": "%"},
      {"measurement": "Relative DON-transformation activity", "setting": "[1]; pH 10.0, 1 h", "result": 100.5, "unit": "%"},
      {"measurement": "Relative DON-transformation activity", "setting": "[1]; pH 10.0, 2 h", "result": 101.4, "unit": "%"},
      {"measurement": "Relative DON-transformation activity", "setting": "[1]; pH 10.0, 3 h", "result": 99.8, "unit": "%"},
      {"measurement": "Relative DON-transformation activity", "setting": "[1]; pH 10.0, 4 h", "result": 96.0, "unit": "%"},
      {"measurement": "temperature of maximum DON degradation activity (temperature optimum)", "setting": "[2]; 14.9° C. to 55.7° C. tested", "result": "approximately 35 °C"},
      {"measurement": "DON degradation", "setting": "[2]; 14.9° C., after 20 min of incubation", "result": "complete DON degradation"},
      {"measurement": "pH of maximum DON degradation activity (pH optimum)", "setting": "[2]; pH 2 to pH 10 tested, 30° C.", "result": 6.0},
      {"measurement": "DON degradation", "setting": "[2]; pH 4.0, after 30 min", "result": "complete degradation"}
    ]}
  ]
}
